Measured values as given in US20090041770A1.

The substances below were run against human FcRn fused to a His-tag and glutathione S transferase (FcRn-His-GST), complex of FcRn heavy chain with beta-2-microglobulin (human) (UniProt P55899) (assay: AlphaScreen competition, […] NaCl).

Substance | FcRn Binding Fold-Increase
P257L AC10 - IgG1 (antibody) | 44
V308F AC10 - IgG1 (antibody) | 46.1

The substances below were run against human FcRn fused to a His-tag and glutathione S transferase (FcRn-His-GST), complex of FcRn heavy chain with beta-2-microglobulin (human) (UniProt P55899) (assay: AlphaScreen competition).

Substance | FcRn Binding ratio Variant / WT
L234R (antibody) | 1.19
E233S (antibody) | 1.1
E272R (antibody) | 1.83
S267L/A327S (antibody) | 1.05
S267E (antibody) | 2.24
N276H (antibody) | 1.19
K274T (antibody) | 1.08
P329W (antibody) | 3.16
I336E (antibody) | 8.11
T335V (antibody) | 1.25
E233R (antibody) | 1.05
T299H (antibody) | 2.03
N325D (antibody) | 1.45
Y300A (antibody) | 1.04
Q295T (antibody) | 3.82
Y278R (antibody) | 1.23
S324D (antibody) | 1.27
A327D (antibody) | 1.01
E294I (antibody) | 1.09
D265P (antibody) | 1.18
G236I (antibody) | 1.33

The substances below were run against human FcRn fused to a His-tag and glutathione S transferase (FcRn-His-GST), complex of FcRn heavy chain with beta-2-microglobulin (human) (UniProt P55899) (assay: AlphaScreen competition, 25 mM NaCl).

Substance | Medan Fold Increase
^281D (antibody) | 0.89
^281S/V308F (antibody) | 2.13
^281T (antibody) | 0.56
^281S/V308Y (antibody) | 1.46
P257N/^281S (antibody) | 5.99
